To fix the notation:
B1: NF-kappa-B essential modulator (Mus musculus), O88522 (parent)
chain: MNKHPWKNQLSEMVQPSGGPAEDQDMLGEESSLGKPAMLHLPSEQGTPETLQRCLEENQELRDAIRQSNQMLRERCEELLHFQVSQREEKEFLMCKFQEARKLVERLSLEKLDLRSQREQALKELEQLKKCQQQMAEDKASVKAQVTSLLGELQESQSRLEAATKDRQALEGRIRAVSEQVRQLESEREVLQQQHSVQVDQLRMQNQSVEAALRMERQAASEEKRKLAQLQAAYHQLFQDYDSHIKSSKGMQLEDLRQQLQQAEEALVAKQELIDKLKEEAEQHKIVMETVPVLKAQADIYKADFQAERHAREKLVEKKEYLQEQLEQLQREFNKLKVGCHESARIEDMRKRHVETPQPPLLPAPAHHSFHLALSNQRRSPPEEPPDFCCPKCQYQAPDMDTLQIHVMECIE

The variants in the first assay derive from B1. Particulars: with rnf31_mouse Rnf31, Q924T7.
Sequence of rnf31_mouse Rnf31, Q924T7 (Q924T7 whole entry): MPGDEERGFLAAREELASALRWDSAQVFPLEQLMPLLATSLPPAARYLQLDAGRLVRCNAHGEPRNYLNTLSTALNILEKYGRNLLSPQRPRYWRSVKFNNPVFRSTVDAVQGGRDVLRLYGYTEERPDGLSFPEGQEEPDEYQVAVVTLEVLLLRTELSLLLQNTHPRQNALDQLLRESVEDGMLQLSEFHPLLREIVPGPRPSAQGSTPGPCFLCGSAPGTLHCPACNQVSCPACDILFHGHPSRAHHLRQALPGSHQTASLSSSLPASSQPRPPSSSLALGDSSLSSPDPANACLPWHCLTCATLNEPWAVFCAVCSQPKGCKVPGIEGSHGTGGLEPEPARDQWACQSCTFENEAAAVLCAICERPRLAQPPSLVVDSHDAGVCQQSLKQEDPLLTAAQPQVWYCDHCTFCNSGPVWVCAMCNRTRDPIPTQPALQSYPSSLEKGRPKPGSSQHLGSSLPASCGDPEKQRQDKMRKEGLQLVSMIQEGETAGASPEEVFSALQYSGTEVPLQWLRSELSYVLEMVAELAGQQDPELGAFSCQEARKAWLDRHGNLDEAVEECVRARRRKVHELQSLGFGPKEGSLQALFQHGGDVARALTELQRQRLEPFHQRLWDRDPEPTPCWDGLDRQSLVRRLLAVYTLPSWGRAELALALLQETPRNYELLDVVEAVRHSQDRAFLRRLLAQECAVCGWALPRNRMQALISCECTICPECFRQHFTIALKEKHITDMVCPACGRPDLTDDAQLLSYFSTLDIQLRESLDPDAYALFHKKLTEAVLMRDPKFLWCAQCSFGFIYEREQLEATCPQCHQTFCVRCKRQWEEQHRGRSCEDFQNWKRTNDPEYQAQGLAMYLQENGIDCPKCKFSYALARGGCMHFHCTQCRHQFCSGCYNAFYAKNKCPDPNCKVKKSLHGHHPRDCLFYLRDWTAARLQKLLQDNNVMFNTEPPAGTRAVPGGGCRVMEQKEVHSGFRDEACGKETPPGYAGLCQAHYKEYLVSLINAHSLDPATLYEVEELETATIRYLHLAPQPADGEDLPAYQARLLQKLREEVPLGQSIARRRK
Regarding MNKHPWKNQLSEMVQPSGGPAEDQDMLGEESSLGKPAMLHLPSEQGTPETLQRCLEENQELRDAIRQSNQMLRERCEELLHFQVSQREEKEFLMCKFQEARKLVERLSLEKLDLRSQREQALKELEQLKKCQQQMAEDKASVKAQVTSLLGELQESQSRLEAATKDRQALEGRIRAVSEQVRQLESEREVLQQQHSVQVDQLRMQNQSVEAALRMERQAASEEKRKLAQLQAAYHQLFQDYDSHIKSSKGMQLEDLRQQLQQAEEALVAKAELIAKLKEEAEQHKIVMETVPVLKAQADIYKADFQAERHAREKLVEKKEYLQEQLEQLQREFNKLKVGCHESARIEDMRKRHVETPQPPLLPAPAHHSFHLALSNQRRSPPEEPPDFCCPKCQYQAPDMDTLQIHVMECIE [Q271A;D275A], the “effect of a mutation on the interaction” value is listed as “disrupting interaction”.

In another assay the parent is B1. The following applies: with rnf31_mouse Rnf31, Q924T7. The source holds these as a separate data set.
With MNKHPWKNQLSEMVQPSGGPAEDQDMLGEESSLGKPAMLHLPSEQGTPETLQRCLEENQELRDAIRQSNQMLRERCEELLHFQVSQREEKEFLMCKFQEARKLVERLSLEKLDLRSQREQALKELEQLKKCQQQMAEDKASVKAQVTSLLGELQESQSRLEAATKDRQALEGRIRAVSEQVRQLESEREVLQQQHSVQVDQLRMQNQSVEAALRMERQAASEEKRKLAQLQAAYHQLFQDYDSHIKSSKGMQLEDLRQQLQQAEEALVAKQELIAKLKEEAEQHKIVMETVPVLKAQADIYKADFQAERHAREKLVEKKEYLQEQLEQLQREFNKLKVGCHESARIEDMRKRHVETPQPPLLPAPAHHSFHLALSNQRRSPPEEPPDFCCPKCQYQAPDMDTLQIHVMECIE [D275A], the “effect of a mutation on the interaction” value was “disrupting interaction”.

Another assay covers variants of B1. Particulars: with rnf31_mouse Rnf31, Q924T7. This is another data set of the same source.
Turning to MNKHPWKNQLSEMVQPSGGPAEDQDMLGEESSLGKPAMLHLPSEQGTPETLQRCLEENQELRDAIRQSNQMLRERCEELLHFQVSQREEKEFLMCKFQEARKLVERLSLEKLDLRSQREQALKELEQLKKCQQQMAEDKASVKAQVTSLLGELQESQSRLEAATKDRQALEGRIRAVSEQVRQLESEREVLQQQHSVQVDQLRMQNQSVEAALRMERQAASEEKRKLAQLQAAYHQLFQDYDSHIKSSKGMQLEDLRQQLQQAEEALVAKAELIDKLKEEAEQHKIVMETVPVLKAQADIYKADFQAERHAREKLVEKKEYLQEQLEQLQREFNKLKVGCHESARIEDMRKRHVETPQPPLLPAPAHHSFHLALSNQRRSPPEEPPDFCCPKCQYQAPDMDTLQIHVMECIE [Q271A], the “effect of a mutation on the interaction” value is “disrupting interaction”.

(Values after IntAct's records for PubMed 24469399.)
